Reference: PMC9860310 (Proceedings of the National Academy of Sciences of the …, 2022)

Molecular target: GroEL (Escherichia coli, UniProt P0A6F5 1-548)
Assay: reconstitution of the complex

Chain of GroEL (P0A6F5 whole entry): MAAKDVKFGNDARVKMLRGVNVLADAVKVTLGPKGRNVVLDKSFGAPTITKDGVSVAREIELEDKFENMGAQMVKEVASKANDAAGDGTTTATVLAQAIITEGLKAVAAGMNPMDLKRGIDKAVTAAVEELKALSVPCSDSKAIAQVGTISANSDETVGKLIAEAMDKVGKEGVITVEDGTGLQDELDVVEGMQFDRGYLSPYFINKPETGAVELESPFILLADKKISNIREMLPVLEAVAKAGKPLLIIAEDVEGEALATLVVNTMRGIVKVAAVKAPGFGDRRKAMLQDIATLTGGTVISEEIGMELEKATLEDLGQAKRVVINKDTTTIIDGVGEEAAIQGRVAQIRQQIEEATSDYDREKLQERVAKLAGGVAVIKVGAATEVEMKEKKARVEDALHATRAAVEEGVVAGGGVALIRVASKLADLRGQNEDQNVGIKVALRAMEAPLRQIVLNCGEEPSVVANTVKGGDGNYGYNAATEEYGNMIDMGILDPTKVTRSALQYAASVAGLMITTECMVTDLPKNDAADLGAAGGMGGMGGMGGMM

- binding result: binds
B1: GroES (natural protein, Escherichia coli, UniProt P0A6F9 1-97, looked up)
chain: MNIRPLHDRVIVKRKEVETKSAGGIVLTGSAAAKSTRGEVLAVGNGRILENGEVKPLDVKVGDIVIFNDGYGVKSEKIDNEEVLIMSESDILAIVEA
